Ends that are not written are not given here. * marks the point of attachment. Biotin = O=C1N[C@H]2[C@H](CS[C@H]2CCCCC(=O)*)N1
Experiments:
Test in all cases: peptide or protein array; E. coli proteome chip: purified His-tagged proteins printed in duplicate on Fullmoon slides, blocked with 1% BSA; 10 nM N-terminal biotinylated LfcinB with 1% BSA, room temperature, 1 h; detected with DyLight 649-labeled streptavidin, ratio to DyLight 549-labeled anti-His antibody; ProCAT normalisation, local cut-off; triplicate chips
Conditions in all cases: both partners purified
RplW = RplW (E. coli K-12, UniProt P0ADZ0 1-100)
YciW = target: T1, YciW (E. coli K-12, UniProt P76035 1-375)
T1 construct: YciW, E. coli K-12
T1 sequence (looked up): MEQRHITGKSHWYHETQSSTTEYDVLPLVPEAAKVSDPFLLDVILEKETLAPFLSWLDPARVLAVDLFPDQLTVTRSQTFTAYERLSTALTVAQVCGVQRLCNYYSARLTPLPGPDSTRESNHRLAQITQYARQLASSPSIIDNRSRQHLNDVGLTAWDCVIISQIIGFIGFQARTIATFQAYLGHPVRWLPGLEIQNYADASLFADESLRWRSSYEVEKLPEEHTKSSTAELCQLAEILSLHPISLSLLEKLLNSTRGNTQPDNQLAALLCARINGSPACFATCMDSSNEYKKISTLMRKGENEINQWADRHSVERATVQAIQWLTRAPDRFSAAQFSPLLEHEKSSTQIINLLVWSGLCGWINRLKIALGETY

SoxR = target: T2, SoxR (E. coli K-12, UniProt P0ACS2 1-154)
T2 construct: SoxR, E. coli K-12
T2 sequence (looked up): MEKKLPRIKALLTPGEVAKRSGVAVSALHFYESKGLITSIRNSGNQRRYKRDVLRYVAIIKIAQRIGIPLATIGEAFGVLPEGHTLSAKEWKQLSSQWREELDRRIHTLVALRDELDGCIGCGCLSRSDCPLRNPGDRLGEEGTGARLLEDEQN

YjdK = target: T3, YjdK (E. coli K-12, UniProt P0AF61 1-98)
T3 construct: YjdK, E. coli K-12
T3 sequence (looked up): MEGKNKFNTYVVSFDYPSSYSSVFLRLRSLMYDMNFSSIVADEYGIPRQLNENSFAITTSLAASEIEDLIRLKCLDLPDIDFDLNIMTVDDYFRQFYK

YjbM = target: T4, YjbM (E. coli K-12, UniProt P32694 1-235)
T4 construct: YjbM, E. coli K-12
T4 sequence (looked up): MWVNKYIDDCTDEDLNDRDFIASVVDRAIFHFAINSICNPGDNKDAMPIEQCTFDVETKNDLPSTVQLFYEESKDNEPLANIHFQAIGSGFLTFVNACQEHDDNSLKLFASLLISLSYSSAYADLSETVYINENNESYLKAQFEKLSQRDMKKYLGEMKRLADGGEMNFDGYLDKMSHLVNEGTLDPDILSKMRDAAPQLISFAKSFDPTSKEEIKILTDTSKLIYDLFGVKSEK

RpsB = RpsB (E. coli K-12, UniProt P0A7V0 1-241)
YhaJ = target: T5, YhaJ (E. coli K-12, UniProt P67660 1-298)
T5 construct: YhaJ, E. coli K-12
T5 sequence (looked up): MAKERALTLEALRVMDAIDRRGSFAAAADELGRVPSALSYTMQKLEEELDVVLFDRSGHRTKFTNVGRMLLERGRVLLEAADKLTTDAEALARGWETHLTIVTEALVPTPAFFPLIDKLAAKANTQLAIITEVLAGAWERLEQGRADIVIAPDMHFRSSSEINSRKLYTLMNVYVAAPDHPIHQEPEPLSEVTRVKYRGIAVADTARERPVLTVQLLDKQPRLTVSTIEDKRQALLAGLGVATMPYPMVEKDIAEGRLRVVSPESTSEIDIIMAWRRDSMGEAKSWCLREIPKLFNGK

Measured: binding result

B1: N-terminal biotinylated Lactoferricin B (peptide, UniProt P24627 36-60, looked up)
peptide: Biotin-FKCRRWQWRMKKLGAPSITCVRRAF
modifications: ends and bridges not checked
notes: lactoferricin B (LfcinB), cationic antimicrobial peptide of 25 amino acids; also called biotinylated LfcinB; biotin-labeled LfcinB; source: bought: Kelowna Inc
binds: all assays above

Reference: publication PMC3229523, “Identification of Lactoferricin B Intracellular Targets Using an Escherichia coli Proteome Chip” (PLoS ONE, 2011)
